US20170360949A1 (TIANJIN INSTITUTE OF INDUSTRIAL BIOTECHNOLOGY CHINESE …, published 2017)
Each block holds one binder with its values, some of them ahead of it.

Experiments:
[1] = target: T1, GLZ (human); assay: SDS-PAGE and Native-PAGE of the purified complex
T1 construct: Two GLZ chains stand in the GLZ/TeN complex; End residue 260 from claim 16; also called GLP-1(8G) attached to the N terminus of Z1Z2
T1 chain: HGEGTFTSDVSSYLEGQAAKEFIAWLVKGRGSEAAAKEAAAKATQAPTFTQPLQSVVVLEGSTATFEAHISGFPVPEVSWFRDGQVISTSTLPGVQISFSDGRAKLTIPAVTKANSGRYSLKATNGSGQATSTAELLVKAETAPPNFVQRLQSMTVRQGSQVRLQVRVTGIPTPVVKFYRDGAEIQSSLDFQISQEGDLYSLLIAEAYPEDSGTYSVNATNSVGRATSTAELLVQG

[2] = target: T2, ZSST (human); assay: SDS-PAGE and Native-PAGE of the purified complex
T2 construct: Two ZSST chains stand in the ZSST/TeN complex; End residue 237 from claim 18; also called SST inserted into a loop of the Z1Z2 molecule
T2 chain: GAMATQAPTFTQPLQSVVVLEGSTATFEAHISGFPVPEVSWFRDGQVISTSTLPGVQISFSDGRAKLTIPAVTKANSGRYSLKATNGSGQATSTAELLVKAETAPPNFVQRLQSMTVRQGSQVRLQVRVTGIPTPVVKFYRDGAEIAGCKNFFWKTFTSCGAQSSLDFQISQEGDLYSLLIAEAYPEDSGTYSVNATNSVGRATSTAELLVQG

[3] = target: T3, Z1Z2 (two Ig domains at the N terminus of the titin molecule) (human); assay: complex formation by mixing in urea and dialysis, then co-purification
T3 construct: also called polypeptide A
T3 chain: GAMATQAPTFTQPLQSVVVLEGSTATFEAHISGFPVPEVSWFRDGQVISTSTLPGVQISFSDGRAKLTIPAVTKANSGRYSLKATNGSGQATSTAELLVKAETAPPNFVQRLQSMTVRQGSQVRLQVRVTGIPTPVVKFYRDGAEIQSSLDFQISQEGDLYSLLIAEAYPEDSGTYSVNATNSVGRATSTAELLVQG

[4] = target: T3, Z1Z2 (two Ig domains at the N terminus …); assay: SDS-PAGE and Native-PAGE of the purified complex

binding result [1]: binds
binding result [2]: binds
B1: TeN (N terminus of Telethonin, Cys mutated to Ser) (other)
chain: GAMATSELSSEVSEENSERREAFWAEWKDLTLSTRPEEGSSLHEEDTQRHETYHQQGQSQVLVQRSPWLMMRMGILGRGLQEYQLPYQRVLP
notes: also called polypeptide B

binding result [3]: binds
B2: GLTe (other)
chain: HAEGTFTSDVSSYLEGQAAKEFIAWLVKGRGGGGGSGGGGSGGGGSAMATSELSSEVSEENSERREAFWAEWKDLTLSTRPEEGSSLHEEDTQRHETYHQQGQSQVLVQRSPWLMMRMGILGRGLQEYQLPYQRVLP
notes: TEV site printed as between positions 25 and 26, in conflict with GLP-1 at 25-55; claim 15 gives 25-161; also called GLP-1 (7-37) attached via (GGGGS)3 to the N terminus of TeN

binding result [4]: binds
B3: SSTe (other)
chain: GAMATSELSSEVSEENSEAGCKNFFWKTFTSCGGRREAFWAEWKDLTLSTRPEEGSSLHEEDTQRHETYHQQGQSQVLVQRSPWLMMRMGILGRGLQEYQLPYQRVLP
notes: claim 17 gives 25-132; also called SST inserted into the Loop (LT1) of a TeN mutant
